Results reported in US12410253B2, “Compositions comprising anti-NRP2 antibodies” (aTyr Pharma, Inc., priority 2019, dated 2025).
Entries after “also recorded” stand apart in the source; their conditions may differ.

B1: aNRP2-10v10: humanized, affinity matured anti-NRP2 antibody, target domain b1, VEGF-C blocking; VH SEQ ID NO: 49, VL SEQ ID NO: 50 (antibody, V domains shown)
VH: EVQLVQSGAEVKKPGATVKISCKVSGFNIKDYYVHWVQQAPGKGLEWMGRIDVEDDETKYAPKFQGRVTITADTSTDTAYMELSSLRSEDTAVYYCATPIYGAREAWFAYWGQGTLVTVSS
VL: DIQMTQSPSSLSASVGDRVTITCTASSSVSSSYLHWYQQKPGKAPKLLIYRTSNLASGVPSRFSGSGSGTDFTLTISSLQPEDFATYYCHQYYRSPPTFGGGTKVEIK
modifications: Variable heavy chain region; Light chain variable region
B2: aNRP2-11v7: humanized, affinity matured anti-NRP2 antibody, target domain b2; VH SEQ ID NO: 51, VL SEQ ID NO: 52 (antibody, V domains shown)
VH: QVQLVQSGAEVKKPGASVKVSCKASGYTFTSFGISWVRQAPGQGLEWIGEIYPRSGNTYYNENFKGRATMTADKSTSTAYMELRSLRSDDTAVYYCARSSGYYGSTPFPYWGQGTLVTVSS
VL: DIQMTQSPSSLSASVGDRVTITCRASQDISNYLNWYQQKPGKAVKLLIYYTSRLHSGVPSRFSGSGSGTDYTFTISSLQPEDIATYYCQQGNTLPWTFGGGTKVEIK
modifications: Variable heavy chain region; Light chain variable region

Columns and labels:
MDA-MB-231 cells = assay: 3D methylcellulose colony formation assay, MDA-MB-231; type: cell-based, human; details: antibody 100 nM in combination with Cisplatin (2 doses) or Bevacizumab (100 nM), compared to hIgG4
Source text: Other experimental details are essentially the same as described in the previous example.

BT549 = assay: 3D soft agar colony formation assay, BT549; type: cell-based, human
Method: (§1) Anchorage-independent growth is the ability of transformed cells to grow independently of a solid surface, and is a hallmark of carcinogenesis. The soft agar colony formation assay is a well-established method for characterizing this capability in vitro (J Vis Exp. 2014; (92): 51998). Human triple negative breast cancer (TNBC) cell lines MDA-MB-231 (HTB-26™) and BT549 (HTB122™) were obtained from ATCC and employed in this assay.
(§2) MDA-MB-231 was cultured in 1×RPMI media containing 10% FBS and 1% P/S. BT549 was cultured in 1×RPMI media containing 10% FBS, 0.023 U/mL insulin and 1% P/S. Cells were recovered and expanded from frozen stocks for 2-3 passages. The NRP2-high population was sorted out on FACS equipment following cell surface staining by a fluorophore-conjugated anti-NRP2 antibody. […] The chemo drug Cisplatin or 5-FU was added at a final concentration of IC30 or 1/2 IC30, based on a preliminary test that determined their inhibition curves on MDA-MB-231 cells, in combination with the antibodies a-NRP2-10v10 or its isotype control hIgG4 at 100 nM. […] After 6 or 9 days of treatment, the soft agar matrix was dissolved and the formed cell colonies were quantified using CyQuant dye diluted in PBS (provided in the Cell Biolab kit), which produced a fluorescence signal proportional to viable cells.

MDA-MB-231 = assay: 3D soft agar colony formation assay, MDA-MB-231; type: cell-based, human
Method: as §1, §2

A549 cells = assay: A549 NSCLC xenograft in Nu/J mice, combination with 5-FU; type: in vivo; details: for tumor growth in combination with 5-FU: 12.5 mg/kg IP BIW plus 5-FU 2.5 mg/kg TIW from day 16, significant on day 51 vs control IgG/5-FU
Method: This study aimed to investigate the in vivo anticancer potential of aNRP2-10v10 in combination with fluorouracil (5-FU) in a human xenograft mouse model using A549 cells (NSCLC cancer model).
Treatment Regimen. Twenty (20) Nu/J mice (Jackson Laboratory, female, 6-8 wks old) were used in this study. […] The dosing regimen is shown in Table E7 below; In brief animals received injections of 12.5 mg/kg of aNRP2-10 or IgG control, which were administered to mice intraperitoneally twice a week according to the protocol below (Table E7). Both groups also received 2.5 mg/kg of 5-FU three times a week.
Human A549 cell line was purchased from ATCC.

Human NRP2 (aa23-855) = molecular target: T1, Human NRP2 (aa23-855) (Homo sapiens, UniProt O60462); assay: SPR binding affinity of anti-NRP2 antibodies to human NRP2 antigen; details: KD = kd/ka, Langmuir (1:1) model
T1 construct: Human NRP2 (aa23-855)
T1 sequence (O60462 23-855 isoform O60462-3): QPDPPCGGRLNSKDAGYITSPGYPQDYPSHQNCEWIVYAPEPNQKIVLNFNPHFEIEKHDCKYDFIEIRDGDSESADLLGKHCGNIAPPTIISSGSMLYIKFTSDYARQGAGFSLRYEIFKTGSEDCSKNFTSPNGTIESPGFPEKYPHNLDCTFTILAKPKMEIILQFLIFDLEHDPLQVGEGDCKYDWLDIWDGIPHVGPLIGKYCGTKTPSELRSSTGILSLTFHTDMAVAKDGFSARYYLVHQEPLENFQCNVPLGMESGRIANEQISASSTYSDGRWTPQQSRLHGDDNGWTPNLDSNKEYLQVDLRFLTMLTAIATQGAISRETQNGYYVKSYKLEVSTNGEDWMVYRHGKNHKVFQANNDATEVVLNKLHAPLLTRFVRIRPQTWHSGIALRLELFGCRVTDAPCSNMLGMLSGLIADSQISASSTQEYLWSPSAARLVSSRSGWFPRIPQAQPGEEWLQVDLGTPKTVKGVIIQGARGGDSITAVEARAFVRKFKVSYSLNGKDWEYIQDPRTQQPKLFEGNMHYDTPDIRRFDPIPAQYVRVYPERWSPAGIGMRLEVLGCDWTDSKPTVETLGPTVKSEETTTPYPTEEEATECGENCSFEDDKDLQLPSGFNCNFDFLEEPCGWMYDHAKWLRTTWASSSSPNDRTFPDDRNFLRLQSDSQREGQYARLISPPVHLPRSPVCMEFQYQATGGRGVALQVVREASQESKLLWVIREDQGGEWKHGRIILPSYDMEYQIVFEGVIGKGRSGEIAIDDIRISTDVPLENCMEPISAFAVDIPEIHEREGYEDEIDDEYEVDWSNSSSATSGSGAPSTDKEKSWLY
Method: Anti-NRP2 antibody binding and affinity measurements. […] SPR experiments were conducted on a Bio-Rad ProteOn XPR36 Protein Interaction Array instrument. Biotinylated anti-human antibody (ThermoFisher Cat #7103302100) was immobilized on ProteOn NLC sensor chips. Anti-NRP2 antibodies were subsequently flowed over and captured by the anti-human antibody. Human NRP2 antigen protein was flowed over the captured antibody at varying concentrations (150, 50, 16.67, 5.56, 1.85 nM). The sensor chip surface was regenerated between each analyte run to remove anti-NRP2 antibodies and NRP2 protein. Data was double referenced against a surface with no anti-NRP2 antibody captured (immobilized anti-human antibody only) and a buffer only blank. Affinity constants were derived by globally fitting sensograms to a Langmuir (1:1) interaction model in the ProteOn manager software. For each anti-NRP2 antibody, data from the multiple NRP2 concentrations was fit as a single data set with dissociation rate constant (kd), association rate constant (ka) and Rmax values as global parameters. The reported binding affinity is the equilibrium dissociation constant (KD) calculated from kd/ka. • Running buffer: 50 mM HEPES, 300 mM NaCl, 5 mM CaCl2), 0.005% Tween-20, pH 7.4 • Immobilized antibody: CaptureSelect Human Fab-kappa Kinetics Biotin Conjugate, ThermoFisher Cat #7103302100 • Antigen: Human NRP2 (aa23-855) with C-terminal Avi-, Myc- and His-tags • Regeneration buffer: 10 mM glycine pH 2.0

Row | Molecule | colony formation by MDA-MB-231 cells, methylcellulose (MDA-MB-231 cells) | colony formation, soft agar, antibody treatment alone (BT549) (BT549; aNRP2-10v10 treatment alone) | colony formation by BT549 cells, soft agar (BT549; antibody 100 nM in combination with Cisplatin or 5-FU at certain doses, compared to hIgG4 control) | colony formation, soft agar, antibody treatment alone (MDA-MB-231) (MDA-MB-231; aNRP2-10v10 treatment alone) | colony formation by MDA-MB-231 cells, soft agar (MDA-MB-231; antibody 100 nM in combination with Cisplatin or 5-FU (IC30 or 1/2 IC30), compared to hIgG4 control, NRP2-high sorted cells) | tumor growth in combination with 5-FU (A549 cells) | tumor growth in combination with 5-FU (A549 cells; listed as aNRP2-10) | toxicity by clinical observations and body weights (A549 cells; combination with 5-FU) | Kd (Human NRP2 (aa23-855))
1 | B1 | inhibitory effect; also recorded: significantly enhanced inhibition of colony formation | no obvious effect | significantly more pronounced | no obvious effect | significantly more pronounced; also recorded: significant inhibition of colony formation | enhances activity of the chemotherapeutic drug 5-FU | performed better than 5-FU with control IgG | No obvious increased toxicity | 0.029 nM
2 | B2 | – | – | – | – | – | – | – | – | 0.95 nM
